In patent publication US20030198990A1 (UNIVERSITY OF ROCHESTER, published 2003):

B1: Rb fragment (aa 371-928) ligated to the DBD of GAL4 (other)
chain: MKLLSSIEQACDICRLKKLKCSKEKPKCAKCLKNNWECRYSPKTKRSPLTRAHLTEVESRLERLEQLFLLIFPREDLDMILKMDSLQDIKALLTGLFVQDNVNKDAVTDRLASVETDMPLTLRQHRISATSSSEESSNKGQRQLTVSPHTPVRTVMNTIQQLMMILNSASDQPSENLISYFNNCTVNPKESILKRVKDIGYIFKEKFAKAVGQGCVEIGSQRYKLGVRLYYRVMESMLKSEEERLSIQNFSKLLNDNIFHMSLLACALEVVMATYSRSTSQNLDSGTDLSFPWILNVLNLKAFDFYKVIESFIKAEGNLTREMIKHLERCEHRIMESLAWLSDSPLFDLIKQSKDREGPTDHLESACPLNLPLQNNHTAADMYLSPVRSPKKKGSTTRVNSTANAETQATSAFQTQKPLKSTSLSLFYKKVYRLAYLRLNTLCERLLSEHPELEHIIWTLFQHTLQNEYELMRDRHLDQIMMCSMYGICKVKNIDLKFKIIVTAYKDLPHAVQETFKRVLIKEEEYDSIIVFYNSVFMQRLKTNILQYASTRPPTLSPIPHIPRSPYKFPSSPLRIPGGNIYISPLKSPYKISEGLPTPTKMTPRSRILVSIGESFGTSEKFQKINQMVCNSDRVLKRSAEGSNPPKPLKKLRFDIEGSDEADGSKHLPGESKFQQKLAEMTSTRTRMQKQKMNDSMDTSNKEEK

What was measured:
[1] = molecular target: T1, near full-length AR (nAR, aa 36-918) ligated to transcriptional activator VP16 (human, UniProt P10275 36-918); assay: cell-based or functional assay
T1 sequence: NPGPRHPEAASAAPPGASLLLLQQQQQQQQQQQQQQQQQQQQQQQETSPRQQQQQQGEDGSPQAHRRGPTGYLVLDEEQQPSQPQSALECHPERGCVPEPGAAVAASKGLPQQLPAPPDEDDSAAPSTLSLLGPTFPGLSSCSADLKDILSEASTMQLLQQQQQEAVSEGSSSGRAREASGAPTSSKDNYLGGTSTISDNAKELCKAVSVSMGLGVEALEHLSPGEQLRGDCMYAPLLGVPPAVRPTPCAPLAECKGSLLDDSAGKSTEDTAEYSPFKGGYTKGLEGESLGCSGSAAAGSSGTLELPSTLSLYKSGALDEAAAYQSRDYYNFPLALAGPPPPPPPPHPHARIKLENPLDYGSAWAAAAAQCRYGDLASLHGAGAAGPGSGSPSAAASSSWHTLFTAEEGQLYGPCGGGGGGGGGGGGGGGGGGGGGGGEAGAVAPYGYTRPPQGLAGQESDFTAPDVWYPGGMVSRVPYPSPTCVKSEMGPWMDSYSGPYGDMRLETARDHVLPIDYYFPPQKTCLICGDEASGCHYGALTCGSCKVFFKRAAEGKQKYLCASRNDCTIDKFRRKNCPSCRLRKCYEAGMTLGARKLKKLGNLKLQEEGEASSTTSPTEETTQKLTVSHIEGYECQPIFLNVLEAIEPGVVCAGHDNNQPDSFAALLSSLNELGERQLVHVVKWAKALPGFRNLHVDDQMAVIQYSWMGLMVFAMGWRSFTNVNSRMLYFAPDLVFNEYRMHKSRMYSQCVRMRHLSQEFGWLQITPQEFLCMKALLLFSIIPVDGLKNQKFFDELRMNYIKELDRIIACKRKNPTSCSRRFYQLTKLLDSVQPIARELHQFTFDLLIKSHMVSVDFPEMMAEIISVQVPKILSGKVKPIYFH

[2] = molecular target: B1; assay: mammalian two-hybrid, CAT reporter, DU145 cells
[3] = molecular target: T2, human androgen receptor (AR), full length (human, UniProt P10275 1-920); assay: cell-based or functional assay
T2 sequence (looked up): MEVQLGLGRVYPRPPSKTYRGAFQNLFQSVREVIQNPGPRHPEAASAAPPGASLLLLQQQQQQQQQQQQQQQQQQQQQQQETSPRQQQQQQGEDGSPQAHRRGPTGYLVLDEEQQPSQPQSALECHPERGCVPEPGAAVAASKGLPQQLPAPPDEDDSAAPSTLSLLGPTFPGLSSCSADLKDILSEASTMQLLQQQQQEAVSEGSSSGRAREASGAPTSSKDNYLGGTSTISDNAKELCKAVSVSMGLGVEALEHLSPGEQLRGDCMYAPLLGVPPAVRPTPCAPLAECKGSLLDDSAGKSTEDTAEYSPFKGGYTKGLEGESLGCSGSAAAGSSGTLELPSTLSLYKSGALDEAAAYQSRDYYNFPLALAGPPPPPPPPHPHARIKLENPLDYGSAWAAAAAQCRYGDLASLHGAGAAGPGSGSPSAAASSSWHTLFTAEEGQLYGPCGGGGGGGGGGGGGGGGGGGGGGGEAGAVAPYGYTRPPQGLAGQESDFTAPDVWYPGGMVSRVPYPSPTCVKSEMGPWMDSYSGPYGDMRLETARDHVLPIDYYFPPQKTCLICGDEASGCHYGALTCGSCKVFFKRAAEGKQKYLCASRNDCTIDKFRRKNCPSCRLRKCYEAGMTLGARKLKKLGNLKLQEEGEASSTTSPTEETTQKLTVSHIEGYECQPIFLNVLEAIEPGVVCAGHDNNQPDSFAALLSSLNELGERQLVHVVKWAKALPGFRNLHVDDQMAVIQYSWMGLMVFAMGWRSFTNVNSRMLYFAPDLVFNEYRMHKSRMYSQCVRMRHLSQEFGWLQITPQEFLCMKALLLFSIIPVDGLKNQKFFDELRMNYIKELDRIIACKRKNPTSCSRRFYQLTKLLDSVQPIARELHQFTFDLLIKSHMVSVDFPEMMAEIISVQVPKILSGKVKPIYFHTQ

[4] = molecular target: T2, human androgen receptor (AR), full …; assay: assay not given
[5] = molecular target: T3, GAL0 empty vector (GAL4 DBD alone) (UniProt P04386 1-147); assay: mammalian two-hybrid, CAT reporter, DU145 cells
T3 construct: range 1-147; Control of the mammalian two-hybrid assay; also called pGAL0

[6] = molecular target: T4, GAL0AR: hormone binding domain of wtAR fused to the GAL4 DBD (human, UniProt P04386 1-147; P10275 625-920); assay: mammalian two-hybrid, CAT reporter, DU145 cells
T4 construct: range 1-147;domain: hinge and LBD; also called pGAL0-AR (wild-type); GAL4DBD fused to E region of human AR

[7] = molecular target: T1, near full-length AR (nAR, aa 36-918) …; assay: mammalian two-hybrid, CAT reporter, DU145 cells

B1
CAT activity, mammalian two-hybrid system in DU145 cells [1]: 3 fold

B2: ARA70 (other, UniProt Q13772 1-614, looked up)
chain: MNTFQDQSGSSSNREPLLRCSDARRDLELAIGGVLRAEQQIKDNLREVKAQIHSCISRHLECLRSREVWLYEQVDLIYQLKEETLQQQAQQLYSLLGQFNCLTHQLECTQNKDLANQVSVCLERLGSLTLKPEDSTVLLFEADTITLRQTITTFGSLKTIQIPEHLMAHASSANIGPFLEKRGCISMPEQKSASGIVAVPFSEWLLGSKPASGYQAPYIPSTDPQDWLTQKQTLENSQTSSRACNFFNNVGGNLKGLENWLLKSEKSSYQKCNSHSTTSSFSIEMEKVGDQELPDQDEMDLSDWLVTPQESHKLRKPENGSRETSEKFKLLFQSYNVNDWLVKTDSCTNCQGNQPKGVEIENLGNLKCLNDHLEAKKPLSTPSMVTEDWLVQNHQDPCKVEEVCRANEPCTSFAECVCDENCEKEALYKWLLKKEGKDKNGMPVEPKPEPEKHKDSLNMWLCPRKEVIEQTKAPKAMTPSRIADSFQVIKNSPLSEWLIRPPYKEGSPKEVPGTEDRAGKQKFKSPMNTSWCSFNTADWVLPGKKMGNLSQLSSGEDKWLLRKKAQEVLLNSPLQEEHNFPPDHYGLPAVCDLFACMQLKVDKEKWLYRTPLQM
notes: also called AR associated protein ARA70
binding result [2]: no binding
induced CAT activity in mammalian two-hybrid assay [3]: 12 fold

B3: C-terminal domain of ARA55 (amino acids 251-444) (other)
chain: EKDGAPFCPECYFERFSPRCGFCNQPIRHKMVTALGTHWHPEHFCCVSCGEPFGDEGFHEREGRPYCRRDFLQLFAPRCQGCQGPILDNYISALSLLWHPDCFVCRECFAPFSGGSFFEHEGRPLCENHFHARRGSLCPTCGLPVTGRCVSALGRRFHPDHFACTFCLRPLTKGSFQERAGKPYCQPCFLKLFG
notes: also called ARA55251-444; C-terminus of ARA55
binding result [4]: binds

B4: VP16-ARA55: full-length ARA55 fused to the activation domain of VP16 (other)
chain: MPRSGAPKERPAEPLTPPPSYGHQPTGQSGESSGASGDKDHLYSTVCKPRSPKPAAPAAPPFSSSSGVLGTGLCELDRLLQELNATQFNITDEIMSQFPSSKVASGEQKEDQSEDKKRPSLPSSPSPGLPKASATSATLELDRLMASLPDFRVQNHLPASGPTQPPVVSSTNEGSPSPPEPTAKGSLDTMLGLLQSDLSRRGVPTQAKGLCGSCNKPIAGQVVTALGRAWHPEHFVCGGCSTALGGSSFFEKDGAPFCPECYFERFSPRCGFCNQPIRHKMVTALGTHWHPEHFCCVSCGEPFGDEGFHEREGRPYCRRDFLQLFAPRCQGCQGPILDNYISALSLLWHPDCFVCRECFAPFSGGSFFEHEGRPLCENHFHARRGSLCPTCGLPVTGRCVSALGRRFHPDHFACTFCLRPLTKGSFQERAGKPYCQPCFLKLFG
notes: Mammalian two-hybrid construct, expressed in DU145 cells
binding result [5]: no binding

B5: VP16 vector (VP16 activation domain alone) (other)
chain: APPTDVSLGDELHLDGEDVAMAHADALDDFDLDMLGDGDSPGPGFTPHDSAPYGALDMADFEFEQMFTDALGIDEYGG
notes: Control of the mammalian two-hybrid assay; also called pCMX-VP16
binding result [6]: no binding

B6: AR-LBD (aa 590-918) ligated to transcriptional activator VP16 (receptor)
chain: GKQKYLCASRNDCTIDKFRRKNCPSCRLRKCYEAGMTLGARKLKKLGNLKLQEEGEASSTTSPTEETTQKLTVSHIEGYECQPIFLNVLEAIEPGVVCAGHDNNQPDSFAALLSSLNELGERQLVHVVKWAKALPGFRNLHVDDQMAVIQYSWMGLMVFAMGWRSFTNVNSRMLYFAPDLVFNEYRMHKSRMYSQCVRMRHLSQEFGWLQITPQEFLCMKALLLFSIIPVDGLKNQKFFDELRMNYIKELDRIIACKRKNPTSCSRRFYQLTKLLDSVQPIARELHQFTFDLLIKSHMVSVDFPEMMAEIISVQVPKILSGKVKPIYFH
notes: range 590-918; Mammalian two-hybrid construct, DU145 cells; also called pCMX-VP16-AR
binding result [2]: no binding

B7: PR-LBD (receptor, UniProt P06401 679-933, looked up)
chain: QDIQLIPPLINLLMSIEPDVIYAGHDNTKPDTSSSLLTSLNQLGERQLLSVVKWSKSLPGFRNLHIDDQITLIQYSWMSLMVFGLGWRSYKHVSGQMLYFAPDLILNEQRMKESSFYSLCLTMWQIPQEFVKLQVSQEEFLCMKVLLLLNTIPLEGLRSQTQFEEMRSSYIRELIKAIGLRQKGVVSSSQRFYQLTKLLDNLHDLVKQLHLYCLNTFIQSRALSVEFPEMMSEVIAAQLPKILAGMVKPLLFHKK
notes: domain: LBD; Control in the mammalian two-hybrid assay; the construct is not described
binding result [7]: no binding
